Laboratory results: the RNAGym collection of RNA variant scans (doi:10.1073/pnas.2313332121)
Fewer inactive variants are shown than the library holds.

B1: TPR 5TU (parent)
chain: GGAUCUUCUCGAUCUAACAAAAAAGACAAAUCUGCCACAAAGCUUGAGAGCAUCUUCGGAUGCAGAGGCGGCAGCCUUCGGUGGCGCGAUAGCGCCAACGUUCUCAACUAUGACACGCAAAACGCGUGCUCCGUUGAAUGGAGUUUAUCAUG

Variants of: B1
Experiment: polymerase ribozyme fitness, log enrichment relative to wild type (log ratio); higher = more active; in vitro selection for triplet polymerase activity
Procedure, shortened: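 Fitness measures genotype enrichment against wild-type enrichment on a logarithmic scale, with inverse-variance-weighted averaging of replicates. The logarithm is base 2, and genotypes were kept only with ≥10 input reads and ≥1 read per output in Illumina sequencing. The sequenced libraries came from one triplicate in vitro selection round, including frozen incubation at −7 °C, of PCR-built, transcribed mutant libraries of each subunit of a heterodimeric triplet polymerase ribozyme.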

| Variant | polymerase ribozyme fitness (log ratio) |
| --- | --- |
| A66G U104A U134G G136C | ≤ -4.2 |
| G67C G88U C149A | ≤ -4.2 |
| C63G G68U G71A U78G C85G G100A G141U | ≤ -4.2 |
| G68C A122C U127A | ≤ -4.2 |
| A64U C79U C87A A137G | ≤ -4.2 |
| A64U A66G U77C C96G C103G C116A | ≤ -4.2 |
| G67C C125G | ≤ -4.2 |
| A66G A97U | ≤ -4.2 |
| A66U C85U U102C A107G G143C | ≤ -4.2 |
| G62U C103U | -0.754 |
| G65A C96U | -1.03 |
| A64C A66C C125U | ≤ -4.2 |
| G68A C95U | -3.77 |
| G68C A97U U102A | ≤ -4.2 |
| A66G G92C | -3.77 |
| A64U A73G A89C G92A A150U | ≤ -4.2 |
| G68A C93G | ≤ -4.2 |
| A64G C103G U148G | ≤ -4.2 |
| G68U C76U | ≤ -4.2 |
| G62U G65A C103A | -3.94 |
| A64C G88C U90G U102G A119U A120U C149G | ≤ -4.2 |

| Variant | polymerase ribozyme fitness (log ratio) |
| --- | --- |
| C69A A73G C87U | ≤ -4.2 |
| C63U G141C | -0.69 |
| C69A G86A C149A | ≤ -4.2 |
| A64G G84U | -4.16 |
| C69A C85U | -1.65 |
| G68A U90G A150U | ≤ -4.2 |
| C63G C87U C129G U139C G143U | ≤ -4.2 |
| G62U C85U C96U C118U | -1.28 |
| A66G C85A | -3.39 |
| G68A A98U | -3.61 |
| C63U G83C C85G C105A A110C | ≤ -4.2 |
| A66C C96A | ≤ -4.2 |
| C63G G92A | -2.18 |
| G65A U139C G141C | -3.69 |
| C63U G83C C96U C105G G117U | -2.06 |
| G67C C85U G126U G133C G143A | ≤ -4.2 |
| C69A U77G C118U U139C | ≤ -4.2 |
| G65A | -1.04 |
| G65C | ≤ -4.2 |
| G65U | -3.1 |
| C69A U90C | ≤ -4.2 |

| Variant | polymerase ribozyme fitness (log ratio) |
| --- | --- |
| G67C G94A C95G A150G | ≤ -4.2 |
| A66C C96A A115C C123U G136C | ≤ -4.2 |
| G62C G70A C79G G86C A142C C149U | ≤ -4.2 |
| G68C C69A G92U G136A | -4.11 |
| G67U C87U U104G C132G U144C U148G | ≤ -4.2 |
| A64G G68U U144A | ≤ -4.2 |
| G62A G92A | -3.43 |
| C63U C85A | -3.57 |
| A64U C103G U134G G141C | ≤ -4.2 |
| G62C C93U | -3.83 |
| G67A G83A | ≤ -4.2 |
| C63G A73G G94A G136A | -0.0432 |
| A64U C93G C114G | ≤ -4.2 |
| G65C C149G | ≤ -4.2 |
| G62A C85U A115U G141U | -1.19 |
| G62C C85G | -3.23 |
| G65A C131U | -0.0454 |
| C69A C95A C96G G152U | -3.59 |
| G68U C85U | ≤ -4.2 |
| G62C A64G G83C U102G C114U U127G | ≤ -4.2 |
| C69A G81A | -1.51 |

| Variant | polymerase ribozyme fitness (log ratio) |
| --- | --- |
| G62C G74A G83A C125A U139G G140A | ≤ -4.2 |
| C63G C85U U145A | 0.338 |
| C63A U102C A142G | -2.31 |
| G68A A147U | -4.05 |
| A66G A89U C95G C116A C123A | ≤ -4.2 |
| A64C A66U A122G | ≤ -4.2 |
| G62A G84A | -2.31 |
| G68A C99A | ≤ -4.2 |
| A64G C76U | -3.62 |
| G62A G68C C87A | ≤ -4.2 |
| A64G C85U | -3.21 |
| C63A C85U | -0.129 |
| A64G G86A | -4.08 |
| A64C C93U U102G | ≤ -4.2 |
| G65A C69A G84A | -1.8 |
| G65A G88U A150G | ≤ -4.2 |
| C63U C93A | -3.69 |
| A64U G84U | ≤ -4.2 |
| G65A G124U | -1.24 |
| A64C C72G A91C A106U U109G C123A U148C | ≤ -4.2 |
